Laboratory results as given in the nanobody polyreactivity screen of Harvey et al. (2022).

Experiment: yeast display, Sf9 membrane polyspecificity reagent, FACS + sequencing; frameworks hold sequencing errors
Outline: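 Galactose induction of a Saccharomyces cerevisiae BJ5465 synthetic nanobody display library ran 36–48 hours. The cells were then stained for 1 hour at 4 °C with 10% biotinylated, detergent-solubilized Sf9 membrane reagent, pulled down on streptavidin microbeads and FACS-sorted into low and high (top ~1%) gates on expression and reagent-binding fluorescence. Labels for polyreactivity follow the gate of origin.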

| Sequence | polyreactivity (PSR sort gate) |
| --- | --- |
| QVQLVESGGGLVQAGGSLRLSCAASGSTFDYYTMGWYRQAPGKERELVAAISRSGGSTRYADSVKGRFTISRDNAKNTVYLQMNSLKPEYTAVYYCAAKLWRYYHYDYWGQGTQVTVSS | low polyreactivity |
| QVQLVESGGGLVQAGGSLRLSCAASGYTFFRNTMGWYRQAPGKERELVAVITKSGGSTYYADSVKGRFTISRDNAKNTVYLQMNSLKPEDTAVYYCNAVNALRNTEYNYWGQGTQVTVSS | high polyreactivity |
| QVQLVESGGGLVQAGGSLRLSCAASGRIFHGYAMGWYRQAPGKDRELVAVIRSGVNTNYADSVKGRFTISRDNAKNTVYLQMNSLKPADTAVYYCAVDYTPEDWGDDYWGQGTHVTVSS | low polyreactivity |
| QVQLVESGGGLVQAGGSLRLICAASGFTFRNNAMGWYRQAPGKERELVARITFRGGSTYYADSVKGSFTISRDNAKNTVYLQMNSLNPEHTAVYYCAVDWLSVTSTIKFVMDYWGQGTQVTVSS | low polyreactivity |
| QVQLVESVGGLVQAGGSLRLSCAASGRIFWNYAMGWYRQATGKERELVASISYRGGSTYYADSVKGRFTISRDNAKNTVYLQMNSLKPEDTAVYYCAARTRQARRTDYGYWGQGTQVTVSS | high polyreactivity |
| QVQLVESGGGLVQAGGSLRLSCAASGRTFYKNTMGWYRQAPGKERELVATISQRRGSTYYADSVKGRFTISRDNAKNTVYLQMNSLKTEDTAVYYCNARKYTQSIHYDYWGQGTQVTVSS | high polyreactivity |
| QVQLVESGGGLVQAGGSLRLSCAASGRIFYGYAKGWYRQAPGKERELVASISRRGYSTYYADSVKGRFTISRDNAKNTVYLQMNSLKPEDTAVYYCAAGYYPFNYWCQGTQVTVSS | high polyreactivity |
| QVQLVESGGGLVQAGGSRRLSCAASGFTFSSYAMGWYRQAPGKERELVASISWRGGITYYADSVKGRFTISRDNAKNTVYLQMNSLKPEDTAVYYCAAVAFFRPKFYYWGQGTQVTVSS | high polyreactivity |
| QVQLVESGGGLVQAGGSLRLSCAASGSIFRSYAMGWYRQAPGKERELVAAISRRGGSTYYADSVKGRFTISRDNAKNTVYLQMNSLKPADTAVYYCAADRTGPYDYWGQGTQVTVSS | high polyreactivity |
| QVQLVESGGGLVQAGGSLRLSCAPSGSIFIRNAMGWYRQAPGKERELVAAISGSGSSTYYADSVKGRFTISRDNAKNTVYLQMNSLKPEDTAVYYCNTDRTHSYQYGGYDYWGQGTQVTVSS | low polyreactivity |
| QVQLVETGGGLVQAGGILLLSCAASRIIFPWYTMGWYRQAPGKERELVAAINYSSGDTYADSVKGRFTISRDNAKNTVYLQMNSLKPEDTAVYYCDAEDPEYATYWYKYGYWGLGTQVTVSS | low polyreactivity |
| QVQLVESGGGLVQAGGSLRLSCAASGFTIVYYAMGWYRQAPGKERELVAAISATGGRTYYADSVKGRFTISRDNAKNTVYLQMNSLKPEDTAVYYCAVGLSGASSGMGYWGQGTQVTVSS | high polyreactivity |
| QVQLVESGGGLVQAGGSLRLSCAASGSTYRPYAMGWYRQAPGKERELVAAITGSGGSTYYADSVKGRFTISRDNAKITDYLQMNSLKPEDTAVYYCNAVSTWRYYYWGQGTQVTVSS | high polyreactivity |
| QVQLVESGGGLVQAGGSLRLSCAASGFTFTIYAMGSNRPAPGKERELVATISGRAGRTYYADSVKGRFTISRDNAKNTVYLQMNSLKPEDPAVYYCTAGQRRYPGLSYYWGQGTQVTVSS | high polyreactivity |
| QVQLVESGGGLVQAGGSLRLSCAASGRIFYSNVMGWYRQAPGKERELVAAISGRTGGTYYADSVKGRFTISRDNAKNTVYLQMNSLKPEATAVYYCAARVIYYYGSGPYDYWGQGTQVTVSS | low polyreactivity |
| HVQLVESGGGLVQAGGSLRLSCAASGSTLYWNAIGWYRQAPGKEMELVASITSSGGSTYYADSVKGRFTISRDNAKNTVYLQMNSLKPEDTAVYYCATESWWRYSEYYYWGQGTQVTVSS | low polyreactivity |
| QVQLVESGGGLVQAGGSLRLSCAASGNTFGLYAMGWYRQAPGKDRELVATITWSVSTYADSEKGRFTISRDNAKITVYLEMNSLKPEDTAVYFCAATTGPWYWRYVYWGQGTQVTVSS | high polyreactivity |
| QVQLVESGGGLVQAGGSLRLSCAASGRTFAVYAMGWYRQAPGKERELVAAISYSGDSTYYADSVKGRFTISRDNAKYTVYLQMNSLKPEDTAVYYCAADFLVGLTAVAYEYWGQGTQVTVSS | low polyreactivity |
| QVQLVESGGGLVQAGGSLRLSCAASGRIFSKYAMGWYRQAPGKDRELVAAISWSGGRTYYADSVKGRFTISRDNAKNTVYLQMNSLKPEDAALYYCAASFYTGYDYWGQGTQVTVSS | high polyreactivity |
| QVQLVESGGGLVQAGGSLRLSCAASGSTFAYNDMGWYRQAPGKERELVADIRSGGNTNYADSVKGRFTISRDNAKNTVYLHMNSLKPEATAVYYCATDGYRIDVYHPDYRYDYWGQGTQVTVSS | low polyreactivity |
| QVQLVESGGGLVQAGGSLRLSCAASGFIFAVYAMGWYRQAPGKERELVARISSGRGSTYYADSVKGRFTISRDNAKNTVYFQMNSLKPEDTAVYYCAADPVHRFPGTGGYWGQGTQVTVSS | low polyreactivity |
| QVQLVESGGGLVQAGGSHRISCAASGSTFPGYPMGWYRQAPGKERELVAAGGSTYYADSVKGRFTISRDNAKNTVYLQINSLKPEDTAVYYCAATWGSVQKGTYYYWGQGTQVTVSS | low polyreactivity |

| Sequence | polyreactivity (PSR sort gate) |
| --- | --- |
| QVQLVESGGGLVQAGGSLRLSCAASGYTFGSYAMGWYRQAPGKERELVAAISGGGSTNYADSVKGRFTISRDNAKNTVYLQMNSLKPEDTAVYYCAADIRWGQGTQVTVSS | low polyreactivity |
| QVQLVESGGGLVQAGGSLRLSCAASGRMFRWYAMGWYRPAPGKERELVAAITSGGSTNYADSVKGRFTISRDNAKNTVYLKMNSLKPEDTAVYYCAARWKFPSSFYYWGQGTQVTVSS | high polyreactivity |
| QVQLVESVGGLVQAGGSLRLSCAASGRIFPWYAKGWYRQAPGKERELVAAIRWRGGGTYYADSVKGRFTISRDNAKNTVYLQMNSLKPEDTAVYYCAARRPAKGMGYWGQGTQVTVSS | high polyreactivity |
| QVQLVESWGGLVQAGGSLRLSCAASGSIFYRYAMGWYRQAPGKEREFVAAIRWRGGSTYYADSVKGRFTISRDNAKNTVYLQMNSLKPEDTAVYYCAAPTVQRYNYWGQGTQVTVSS | high polyreactivity |
| QVQLVESGGGLVQAGGSLRLSCAASGFTFRQNAMGWYRQAPGNERELVAVITKSAGSTYYADSVKGRFTISRDNAKNTVYLQMNSLKPEATAVYYCNKRQRFVSSCRRSQGIGWEDDYWGQGTQVTVSS | low polyreactivity |
| QVQLVETGGGLVQAGGSLRLSCAASGIIFSRYAMGWYRQAPGKERELVAAISTSGGRTFYADSVKGRFTISRDNAKNTVYLQMNSLKPEDTAVYYCAVDDLGWTTGGYLYLYGYWGQGTQVTVSS | high polyreactivity |
| QVQLVESGGGLVQAGGSLRLICAASGNTFNVYAMVWYRHAPGKERELVAAITLSGGSTYYADSVKGRFTISRDNAKNTVYLQMNSLKPEDTAVYYCNAEDDGTDYDYWGQGTQVTVSS | low polyreactivity |
| QVQLVESGGGLVQAGGSLRLTCAGSGRIFPFYAMGWYRHAPGKERELVAAISWNGGSTFYADSVKGRFTISRDNAKNTVYLQMNSLKPEDTAVYYCNADFRPAYTYDYWGQGTQVTVSS | low polyreactivity |
| QVQLVESGGGLVQAGGSLRLSCAASGLTFVPYAMGWYRQAPGKERELVAAIDSGGRTNYADSVKGRFTISRDNAKNTVYLQMNSLKPEDTAVYYCAVEWLSYYDENDYWGQGTQVTVSS | high polyreactivity |
| QVQLVESIGGLVQAGGSLRLSCAASGSIFQPYAMRWYRQAPGKERELVAAITTSGGRTYYADSVKGRFTMSRDNAKNTVYLQMNSLKPEDTAVYYCAADWGIGDYDYWGQGTQVTVSS | high polyreactivity |
| QVQLVESGGGLVQAGGILRLSCAASGSTFGENAMGWYRQSPGKERELVAAISRASSTDYADSVKGRFTISRDNAKNTVYLQMNSLKPEDTAVYYCAVSIFGSFNYDFYSWGQGTQVTVSS | low polyreactivity |
| QVQLVESGGGLVQAGGSLRLSCAASGSIFGGYAMGWYRQAPGKERELVAAISWSSSSTYYADSVKGRFTISRDNAKNTVFLQMISLKPEDTAVYYCATGIYPQTSDYVYWGQGTQVTVSS | low polyreactivity |
| QVQLVESGGGLVQAGGSLRLSCAASGRTFNRYAMGWYRQAPGKERELVAAITRGGSTYYADSVKGRFTISRDNAQNTVYLQMNSLKPEDTAVYYCAKYVYSEGYYWGQGTQVTVSS | high polyreactivity |
| QVQLEESGGGLVQAGGSLRLSCAASGSIFTNAMGWYRQAPGKERELVAAISSSGGSTYYADSVKGRFTISRDNAKNTVYLQMNSLKPEDTAVYYCAADHYGGRDYWGQGTQVTVSS | low polyreactivity |
| QVQLVESGGGLVQAGGSLRLSCAASGSTFYYNAMGWYRQAPGKERELVAGISGGGSTNYADSVKGRFTISRDNAKNTVYLQMNSLKPEDTAVYYCAARERYRGAIGYDYWGKGTQVTVSS | low polyreactivity |
| QVQLVESGGGLVQAGGSLRLSCAASGRTFFHYAMGWSRQAPGKERELVAGISSGGRTKYADSVKGRFTISRDNAKNTVYLQMNSLKPEDTAVYYCAASYIVWLTRGAPRKRFDYWGQGTQVTVSS | high polyreactivity |
| QVQLVESGGGLVQAGGSLRLSCAASGGTFVFYAMGWYRQAPGKERELVAAISSAGRTYYADSVKGRFTISRDNAKNTVYFQMNSLKPEDNAVYYCAAVSSQYDGRYYYWGQGTQVTVSS | high polyreactivity |
| QVQLVESVGGLVQAGGSLRLSCAASGRTFHYYVMGWYRQEPGKEGELVAAISRSGGNTYYADSVKGRFTISRDNAQNTVYLQMNSLKPEDTADYYCAAALSAYVKWDYYYWGQGTQVTVSS | high polyreactivity |
| QVQLVESGGGLVQAGGSLRLSCAASGSIILLYAMGWYRQAPGKERELVAAISRSGDSTHYADSVKGRFTISRDNAKNTVYLQMNSLKPEDTAVYYCAADGYHPYGGLYDYCGQGTQVTVSS | low polyreactivity |
| QVQLVESGGGLVQAGGSLRLSCAASGITVKLYPMGWYRQAPGKETELVATINRGSSTYYADSVKGRFTISRDNAKNTVYLLMNSLKPEDTAVYYCAARLIGAGLLIYDYWGQGTQVTVSS | high polyreactivity |
| QVQLVESGGGLVQAGGSLRLSCAASGFTFYYNAMGWYRQAPGKERELVAAISSNGGSTYYADSVKGRFTISRDNAKNTVYLQMNSLKPEDTAVYYCAAYPKSSRWDFESWGQGTQVTVSS | low polyreactivity |
